Among the data in the supplement of paper PMC10567573 are protein stability index values, retold here.

A short description of the data set: protein stability index of a GFP-peptide fusion (GPS, HEK-293T) (PSI 1-6); higher = more stable.
Setting [1] is: treatment: DMSO, c terminus: a fixed tail appended.
The mark [2] stands for this setting: treatment: MLN4924 1 uM, 8 h, c terminus: a fixed tail appended.

± gives the standard deviation.
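Further: 24-mer peptide tiles fused after GFP, lentivirally expressed, FACS-sorted into six equal bins by GFP/DsRed ratio, decoded by Illumina sequencing, PSI is the read-weighted mean bin number.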

SRDEAALPELLLGALPVGSNLTSN [RETREG3] returned a protein stability index under setting [1] of 4.19 ± 0.23 and a protein stability index under setting [2] of 4.43 ± 0.28.

Regarding SRILKKTVYNEMDKNRCELLSFLL [EDNRA], the protein stability index reads like this: under setting [1], 2.14 ± 0.67; under setting [2], 1.96 ± 0.36.

For the sequence SRNAADKERAAGGGAGSSEDDAQS [GOLPH3], the protein stability index is, setting by setting: under setting [1], 5.63 ± 0.24; under setting [2], 5.6 ± 0.15.

In the case of SSAVYFAEADEPTTHFQSIPDAFW [KCNA4], the protein stability index is, setting by setting: under setting [1], 2.54 ± 0.16; under setting [2], 2.67 ± 0.33.

Regarding SSDKVRGIETLESVPIIGGFWETI [PHTF1], the protein stability index under setting [1] came out at 2.56 ± 0.32 and the protein stability index under setting [2] came out at 2.65 ± 0.31.

In the case of SSDVSTAGTGASRSSHSSDSGGSD [ELF3], the protein stability index by setting is: under setting [1], 5.44 ± 0.32; under setting [2], 5.565 ± 0.049.

For the sequence SSELTDSLRTLKPEGNILRDRFKS [NOP53], the protein stability index under setting [1] was found to be 4.42 ± 0.22 and the protein stability index under setting [2] came out at 4.49 ± 0.14.

With SSHFLEQTLDKKLMSDLRRKRTAH [INTS4], the protein stability index runs as follows: under setting [1], 4.06 ± 0.23; under setting [2], 4.14 ± 0.17.

Turning to SSTSPLMEGTPTIKSKKKLLQIID [VPS39], the protein stability index under setting [1] stood at 3.76 ± 0.23 and the protein stability index under setting [2] is 3.79 ± 0.23.

As to STKGSRSNLSTRDASILTEMPTQP [NETO1], the protein stability index is 4.52 ± 0.27 under setting [1] and 4.71 ± 0.24 under setting [2].

Regarding STPLTATPGGRGDMKYGIYAVENE [VTI1B], the protein stability index stood at 4.53 ± 0.19 under setting [1] and 4.42 ± 0.22 under setting [2].

Take STSEDSLVKQECIKEVVEKREACH [FAN1]: the protein stability index is, setting by setting: under setting [1], 5.52 ± 0.22; under setting [2], 5.23 ± 0.092.

STSEESWTDSEVDSSCSGQPIHLW [SPDEF]: the protein stability index is, setting by setting: under setting [1], 4.21 ± 0.32; under setting [2], 4.37 ± 0.25.

With SVLDDLLYAVGGHDGSSYLNSVER [KLHL20], the protein stability index amounted to 2.71 ± 0.46 under setting [1] and 3.03 ± 0.56 under setting [2].

Take SVLKLHHSLQQSEPDLRHLVLVVN [SERTAD1]: the protein stability index is, setting by setting: under setting [1], 2.46 ± 0.24; under setting [2], 2.04 ± 0.25.

As for SVLSACDNLSDLVMVRWNKSLEWS [IQUB], the protein stability index reads like this: under setting [1], 2.04 ± 0.24; under setting [2], 2.33 ± 0.12.

As to SVMFRKWRDSKGKDKEYAEIIRKQ [UBE2R2], the protein stability index reads like this: under setting [1], 2.98 ± 0.28; under setting [2], 2.99 ± 0.18.

In the case of SWEEGMKVFEELLLDADWSINAGS [CRY1], the protein stability index runs as follows: under setting [1], 2.84 ± 0.22; under setting [2], 2.89 ± 0.33.

Take SWRTLAILVNLQGTVVFLLSLFIP [SLC22A15]: the protein stability index is 3.4 ± 0.53 under setting [1] and 2.89 ± 0.11 under setting [2].

Turning to SWTAVTPQQTWASPAEVVDLTLDE [C18orf25], the protein stability index reads like this: under setting [1], 4.74 ± 0.21; under setting [2], 4.73 ± 0.2.

For the sequence SYIGLPYADHNYGARPPPTPPASP [KMT2E], the protein stability index is, setting by setting: under setting [1], 4.66 ± 0.32; under setting [2], 4.73 ± 0.24.

In turn, TAAVLGLICEGLYPASIVDEPTFK [ZBED1] displayed a protein stability index under setting [1] of 2.17 ± 0.26 and a protein stability index under setting [2] of 2.19 ± 0.6.

On to TAELVVIEDAAEPKEPAPPNGSAA [PALM], for which the protein stability index is, setting by setting: under setting [1], 5.39 ± 0.14; under setting [2], 5.47 ± 0.16.

On to TAHASAQSLAGGSRRTKEEELQC [TPD52L1], for which the protein stability index by setting is: (treatment: DMSO, c terminus: native) 4.99 ± 0.1; (treatment: MLN4924 1 uM, 8 h, c terminus: native) 4.88 ± 0.17.

On to TATEELEKTQDDLMKHQTNISELK [EPB41L3], for which the protein stability index reads like this: under setting [1], 5.69 ± 0.23; under setting [2], 5.47 ± 0.39.

TCGGGVQFSSRDCTRPVPRNGGKY [ADAMTS4]: the protein stability index is, setting by setting: under setting [1], 4.19 ± 0.33; under setting [2], 3.94 ± 0.65.

As to TESEARYSSQLSQVQSLITNVESQ [KRT33B], the protein stability index by setting is: under setting [1], 4.66 ± 0.31; under setting [2], 4.75 ± 0.071.

TEVPFSITTDNLQCRERREHPNLV [TEKT4]: the protein stability index is, setting by setting: under setting [1], 4.17 ± 0.15; under setting [2], 4.1 ± 0.15.

Turning to TGDGWEFKLADPDEVARRWGKRKN [ETS2], the protein stability index is, setting by setting: under setting [1], 4.34 ± 0.33; under setting [2], 4.34 ± 0.26.

For the sequence TGEHREFKLDKKYQRPQDSEDMWG [FBF1], the protein stability index is, setting by setting: under setting [1], 4.56 ± 0.23; under setting [2], 4.55 ± 0.35.

As for TGFGQGQGYTINVPWNQVGMRDAD [HDAC6], the protein stability index came to 2.89 ± 0.34 under setting [1] and 2.71 ± 0.28 under setting [2].

For the sequence TGHGVSRGPSPVVLGSQDALPIAT [FCHO1], the protein stability index is, setting by setting: under setting [1], 4.17 ± 0.14; under setting [2], 4.14 ± 0.045.

Regarding TGPLQPQPKKPEDEPQETAYRTQV [PKD2L1], the protein stability index stood at 5.11 ± 0.45 under setting [1] and 5.3 ± 0.2 under setting [2].

For the sequence TGYLSSMVGLILGPFGVNHGVELH [PCMTD2], the protein stability index was found to be 3.17 ± 0.31 under setting [1] and 2.78 ± 0.4 under setting [2].

Regarding THALAEWASRREAFAQRPSSAPDL [CDC25B], the protein stability index reads like this: under setting [1], 3.91 ± 0.26; under setting [2], 4.01 ± 0.082.

For TIDAVPNAIPGRTDIELEIYGMEG [ZNF207], the protein stability index was found to be 3.86 ± 0.27 under setting [1] and 4 ± 0.093 under setting [2].

In turn, TIEYLKRHNALLSKRLLALTSSDL [TMEM192] came in with a protein stability index under setting [1] of 2.38 ± 0.42 and a protein stability index under setting [2] of 2.17 ± 0.21.

Regarding TKLRLERVKFRRQEANARERNRMH [NEUROD6], the protein stability index was 3.67 ± 0.14 under setting [1] and 3.92 ± 0.4 under setting [2].

With TLALEYTYGRRAKGHNTPKDIAHF [DYNC2LI1], the protein stability index by setting is: under setting [1], 2.74 ± 0.071; under setting [2], 2.83 ± 0.22.

As to TLALILQIPTQNTQARQVMEREFN [PPFIA4], the protein stability index by setting is: under setting [1], 2.32 ± 0.34; under setting [2], 2.39 ± 0.26.

In the case of TLEQEQEALVNRLWKRMDKLEAEK [CCDC6], the protein stability index runs as follows: under setting [1], 4.42 ± 0.22; under setting [2], 4.52 ± 0.17.

With TLLLRLNATDPDEGTNGQLDYSFG [PCDHGC5], the protein stability index is, setting by setting: under setting [1], 2.88 ± 0.36; under setting [2], 3.11 ± 0.28.

As for TLSDWAAAVESVLHLGLPWRMLRP [PPEF2], the protein stability index is, setting by setting: under setting [1], 3.1 ± 0.84; under setting [2], 2.48 ± 0.37.

With TLSFIVDGQYLGVAFRGLKGKKLY [SPSB4], the protein stability index runs as follows: under setting [1], 2.16 ± 0.41; under setting [2], 2.31 ± 0.31.

As for TNDRTASQGQWGRAWEVDWFSLAS [DHCR7], the protein stability index runs as follows: under setting [1], 2.61 ± 0.56; under setting [2], 2.68 ± 0.33.

Sequence TNITEVDAASVYTLPAGADFLMCY [CASP6] displayed a protein stability index under setting [1] of 2.35 ± 0.34 and a protein stability index under setting [2] of 2.18 ± 0.25.

As for TNKMKSPETKQRKLSPLRLSVSNN [KMT2E], the protein stability index is, setting by setting: under setting [1], 4.45 ± 0.18; under setting [2], 4.41 ± 0.083.

Consider TPAFMFRLDASTSHQNLRVDDLSV [FSD1], for which the protein stability index is, setting by setting: under setting [1], 2.9 ± 0.28; under setting [2], 3.07 ± 0.31.

For TPKSGEPRVPEEAAQDRPMSPGDC [YJU2B], the protein stability index reads like this: under setting [1], 5.49 ± 0.24; under setting [2], 5.42 ± 0.25.

On to TPVIAATPVPTITANVTSVPVPPA [BRD3], for which the protein stability index is, setting by setting: under setting [1], 4.53 ± 0.23; under setting [2], 4.52 ± 0.047.

Consider TSCAGNLPSRPPPLLSPLLASRNP [RSPH3], for which the protein stability index runs as follows: under setting [1], 3.45 ± 0.22; under setting [2], 3.61 ± 0.32.

The sequence TSLKTKFPAEQYYRFHEHWRFVLQ [TSN] registered a protein stability index under setting [1] of 2.34 ± 0.19 and a protein stability index under setting [2] of 2.54 ± 0.16.
